Assay [1] concerns the target T1, human SIRPA expressed on cells (human, UniProt P78324 31-504). Nature of the assay: flow cytometry on CHO-HuSIRPα cells. The method, then: Initial characterization of SIRPA antibodies involved screening their ability to bind the human receptor ectopically expressed on the rodent Chinese hamster ovary cell line, henceforth referred to as CHO-huSIRPA, followed by screening on primary human macrophages. Cells were harvested, plated at 10⁵ cells/well in a 96-well plate, washed, and incubated in 100 μl FACS buffer containing Fc blocking reagent and […] of indicated monoclonal antibody. Cells were then washed twice and incubated in FACS buffer containing APC-conjugated secondary antibody diluted 1:200 for 30 minutes on ice. Cells were washed twice in cold FACS buffer and acquired on a BD FACS Canto. Data analysis and calculation of mean fluorescence intensity (MFI) values or % positive cells was performed with FlowJo (TreeStar) software version 10.0.7.

The target of assay [2] is T2, mouse SIRPA expressed on CHO cells (mouse, UniProt P97797 32-513).
T2 construct: also called CHO-mSIRPA; CHO-MuSIRPα
T2 sequence: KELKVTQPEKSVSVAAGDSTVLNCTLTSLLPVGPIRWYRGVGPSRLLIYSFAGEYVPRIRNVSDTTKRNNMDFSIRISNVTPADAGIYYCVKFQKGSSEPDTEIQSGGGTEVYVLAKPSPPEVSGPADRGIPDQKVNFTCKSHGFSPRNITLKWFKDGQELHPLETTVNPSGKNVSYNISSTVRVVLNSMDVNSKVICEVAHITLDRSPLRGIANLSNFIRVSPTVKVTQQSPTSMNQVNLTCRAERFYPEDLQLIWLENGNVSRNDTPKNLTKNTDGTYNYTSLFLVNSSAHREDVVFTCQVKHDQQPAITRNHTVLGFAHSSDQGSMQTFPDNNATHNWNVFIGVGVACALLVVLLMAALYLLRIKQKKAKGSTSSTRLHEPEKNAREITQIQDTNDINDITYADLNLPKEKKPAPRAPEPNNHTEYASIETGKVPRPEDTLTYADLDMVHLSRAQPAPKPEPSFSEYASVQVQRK
Nature of the assay: flow cytometry on CHO-MuSIRPα cells.

The target of assay [3] is T1, human SIRPA expressed on cells. Put plainly: cell-based or functional assay.
In assay [4] the target is T3, recombinant soluble human SIRPA antigen, His-tagged (human, UniProt P78324 31-373).
T3 construct: also called His-tagged soluble HuSIRPA protein; monomeric human SIRPA antigen; not shown: His tag
Nature of the assay: SPR, Biacore T200, antibody captured by anti-mouse IgG on CM5, soluble human SIRPA in solution, 1:1 fit. The method, then:
Binding studies were performed using a Biacore T200 (GE). An anti-mouse IgG capture antibody was amine coupled to a CM5 sensor chip using standard NHS/EDC activation. SIRPA antibodies were diluted to 50 nM in 1×HBS-EP+ running buffer and captured onto sensor chip surface. Serial dilutions of recombinant soluble human SIRPA antigen were injected over captured SIRPA antibodies to record sensorgram traces. Data were processed by subtracting RU values from the reference cell as well as the buffer injections.

Assay [5] has as its target T4, human SIRPA-DAP12 chimera expressed on BWZ/NFAT-luciferase reporter cells (human, UniProt O43914 62-113, limits assumed).
T4 construct: domain: intracellular ITAM motif; The intracellular ITIM motif of SIRPA was substituted with the intracellular ITAM motif of DAP12; also called BWZ-huSIRPA; BWZ-HuSIRPA
Nature of the assay: flow cytometry on BWZ-Human SIRPA cells, titrated antibody detected with anti-mouse IgG APC (Relative MFI).

Assay [6] concerns the target T2, mouse SIRPA expressed on CHO cells. Put plainly: flow cytometry on CHO-mSIRPA cells.
The target in assay [7] is T1, human SIRPA expressed on cells. Put plainly: flow cytometry titration on CHO-huSIRPA cells at 4 C. How it is done:
Serial dilutions of monoclonal antibodies were added to 10⁵ CHO-huSIRPA cells and allowed to achieve binding equilibrium at 4° C. After addition of fluorescently labeled secondary antibody and brief washing steps, MFI values as a function of titrated antibody concentration was recorded via FACS analysis (FIG. 3D). Curves were fit using nonlinear regression analysis with Graphpad Prism 6 software.

T1 sequence (P78324 31-504): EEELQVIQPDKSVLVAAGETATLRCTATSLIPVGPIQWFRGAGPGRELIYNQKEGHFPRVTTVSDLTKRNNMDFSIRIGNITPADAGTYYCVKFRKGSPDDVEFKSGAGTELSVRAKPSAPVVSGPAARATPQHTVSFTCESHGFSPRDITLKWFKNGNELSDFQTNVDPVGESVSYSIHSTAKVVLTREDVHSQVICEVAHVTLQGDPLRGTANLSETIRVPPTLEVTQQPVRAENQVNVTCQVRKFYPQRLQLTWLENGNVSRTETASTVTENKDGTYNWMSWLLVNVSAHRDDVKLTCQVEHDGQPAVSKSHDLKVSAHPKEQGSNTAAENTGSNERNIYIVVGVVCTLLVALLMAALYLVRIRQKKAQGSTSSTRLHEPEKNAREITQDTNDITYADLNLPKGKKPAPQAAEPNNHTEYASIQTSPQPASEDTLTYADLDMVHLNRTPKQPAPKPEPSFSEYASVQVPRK
T3 sequence (P78324 31-373 limits assumed): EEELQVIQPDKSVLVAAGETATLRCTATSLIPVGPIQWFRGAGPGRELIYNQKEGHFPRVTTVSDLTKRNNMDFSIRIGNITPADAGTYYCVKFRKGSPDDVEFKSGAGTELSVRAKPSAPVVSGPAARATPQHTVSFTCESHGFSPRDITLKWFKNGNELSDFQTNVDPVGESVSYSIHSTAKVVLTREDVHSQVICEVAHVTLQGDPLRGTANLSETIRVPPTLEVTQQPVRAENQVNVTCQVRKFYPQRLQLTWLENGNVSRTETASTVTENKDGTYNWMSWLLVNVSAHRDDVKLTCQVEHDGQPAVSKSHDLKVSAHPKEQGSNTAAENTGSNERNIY

For mouse IgG1 isotype control (antibody), the MFI, fold over background (fold over background) in assay [1] and in assay [2] was 1 in each case.

B1: 3F9 (antibody, IgG1, V domains shown)
VH: EVKLVESGGGLVKPGGSLKLSCAASGFTFSSYAMSWVRQTPEKRLEWVATISDYGGSYTYYPDSVKGRFTISRDNAKYTLYLQMSSLRSEDTALYYCARPPYDDYYGGFAYWGQGTLVTVSA
VL: DIVLTQSPASLAVSLGQRATISCRASKSVSSSGYSYMHWYQQKPGQPPKLLIYLASNLESGVPARFSGSGSGTDFTLNIHPVEEEDAATYYCQHNRELPCTFGGGTKLEIK
notes: also called anti-SIRPA antibody 3F9; glycosylated 3F9
With B1, in assay [1], the “MFI, fold over background” value was determined as 137 fold over background. For the same molecule, in assay [3], the “phagocytic activity of treated macrophages (FIG. 8C)” value turned out to be 2 fold and the “phagocytosis of labeled Raji cells: CD14+/pHrodo+ macrophages over isotype-treated macrophages” value turned out to be 2.5 fold. In addition, in assay [4], the Kd is 10 nM, the koff turned out to be 0.00057 s⁻¹ and the kon was determined as 55000 M⁻¹ s⁻¹. Besides, the “MFI, fold over background” value in assay [2] was determined as 0.998 fold over background. Moreover, the “EC50 (read off the curve)” value in assay [5] is about 1 nM. The binding result in assay [6] is reported as “no binding (tested: 1.0 pg/ml (so in the source))”. This molecule displayed a concentration for a half-maximal effect (EC50) in assay [7] of 2.6 nM.

B2: deglycosylated 3F9 (antibody, IgG1, V domains shown)
VH: B1 VH
VL: B1 VL
modifications: Fc-linked glycan removed with EndoS (on the heavy chain constant region, which is not given)
notes: also called deglycosylated 3F9 variant; deglycosylated form of 3F9
Turning to B2, in assay [5], the “EC50 (read off the curve)” value was about 1 nM.

B3: 9C2 (antibody, IgG1, V domains shown)
VH: EFQLQQSGAELVKPGASVKISCKASGYSLTGYNMNWVKQSRGKSLEWIGNINPHYGSSTYNQNFKDKATLTVDKSSSAAYMQFNSLTSEDSAVYYCAREGYDGVFDYWGQGTTLTVSS
VL: QIVLSQSPAILSASPGEKVTMTCRASSSVSYMHWYQQKPGSSPKPWIYVTSNLASGVPTRFSGSGSGTSYSLTISRVEAEDAATYYCQQWSSNPRTFGGGTKLEIK
notes: also called anti-SIRPA antibody 9C2; 9C2-DyLight 650
As to B3, the “MFI, fold over background” value in assay [1] was found to be 128 fold over background. In addition, in assay [3], the “phagocytosis of labeled Raji cells: CD14+/pHrodo+ macrophages over isotype-treated macrophages” value was determined as 1.5 fold. In assay [4], the Kd came out at 80 nM, the koff came to 0.0045 s⁻¹ and the association rate constant (kon) worked out at 54000 M⁻¹ s⁻¹. Besides, the “MFI, fold over background” value in assay [2] stood at 0.981 fold over background. For the same molecule, the binding result in assay [6] was “no binding (tested: 1.0 pg/ml (so in the source))”. In assay [7], this molecule yielded an EC50 of 1.6 nM.

The values above are taken from patent publication US20250144209A1 (Alector, published 2025).
